Source: patent publication US20090311784A1 (WISCONSIN ALUMNI RESEARCH FOUNDATION, published 2009)
Changes are numbered by the printed parent chain. Names and notes keep the numbering of the source.

T1: human ribonuclease inhibitor (human, UniProt P13489 2-461)
T1 construct: also called hRI; hR1
T1 sequence: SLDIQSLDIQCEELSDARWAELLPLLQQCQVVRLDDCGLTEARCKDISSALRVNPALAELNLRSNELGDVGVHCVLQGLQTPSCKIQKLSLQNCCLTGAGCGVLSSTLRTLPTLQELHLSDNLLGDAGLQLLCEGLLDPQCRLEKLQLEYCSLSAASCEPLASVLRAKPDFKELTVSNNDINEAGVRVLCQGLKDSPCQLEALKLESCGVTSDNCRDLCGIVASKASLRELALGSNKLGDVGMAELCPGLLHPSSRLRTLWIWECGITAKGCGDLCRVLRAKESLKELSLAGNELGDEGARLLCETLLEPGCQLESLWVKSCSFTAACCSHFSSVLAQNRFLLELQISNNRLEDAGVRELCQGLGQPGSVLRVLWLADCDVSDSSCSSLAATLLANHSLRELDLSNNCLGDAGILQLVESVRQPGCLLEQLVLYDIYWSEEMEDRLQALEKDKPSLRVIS

B1: G38R/R39G/N67R/N88R RNase 1 (enzyme)
chain: KESRAKKFQRQHMDSDSSPSSSSTYCNQMMRRRNMTQRGCKPVNTFVHEPLVDVQNVCFQEKVTCKRGQGNCYKSNSSMHITDCRLTRGSRYPNCAYRTSPKERHIIVACEGSPYVPVHFDASVEDST
notes: Made by site-directed mutagenesis and purified like wild-type RNase 1
B2: R39D/N88A/G89D/R91D RNase 1 (enzyme)
chain: B1 chain with R38G, G39D, R67N, R88A, G89D, R91D
B3: R39D/N67D/N88A/G89D RNase 1 (enzyme)
chain: B1 chain with R38G, G39D, R67D, R88A, G89D
B4: R39D/N67D/G89D/R91D RNase 1 (enzyme)
chain: B1 chain with R38G, G39D, R67D, R88N, G89D, R91D
B5: R39D/N67D/N88A/G89D/R91D RNase 1 (enzyme)
chain: B1 chain with R38G, G39D, R67D, R88A, G89D, R91D
B6: R39D/N67D/N88A/R91D RNase 1 (enzyme)
chain: B1 chain with R38G, G39D, R67D, R88A, R91D
B7: R39L/N67L/N88A/G89L/R91L RNase 1 (enzyme)
chain: B1 chain with R38G, G39L, R67L, R88A, G89L, R91L
B8: N67D/N88A/G89D/R91D RNase 1 (enzyme)
chain: B1 chain with R38G, G39R, R67D, R88A, G89D, R91D
B9: fluorescein-labeled G88R RNase A (enzyme)
chain: KETAAAKFERQHMDSSTSCASSSNYCNQMMKSRNLTKDRCKPVNTFVHESLADVQAVCSQKNVACKNGQTNCYQSYSTMSITDCRETRSSKYPNCAYKTTQANKHIIVACEGNPYVPVHFDASV
modifications: fluorescein on Cys19 (F*-A19C)
notes: also called F*-A19C G88R RNase A; fluorescently-labeled G88R RNase A

Legend:
[1] = molecular target: T1, human ribonuclease inhibitor; experiment: calculated from Kd: ΔΔG = -RTln(Kd wild-type/Kd variant)
Source text: (§1) Values for Kd were obtained by nonlinear least-squares analysis of the binding isotherm using the program […] 5.5 (Red Rock Software, Salt Lake City, Utah).

[2] = molecular target: T1, human ribonuclease inhibitor; experiment: ΔΔG of R39D/N67D/N88A/G89D/R91D RNase 1 minus ΔΔG of this variant
Source text: as §1

[3] = molecular target: T1, human ribonuclease inhibitor; experiment: fluorescence competition assay with fluorescein-labeled G88R RNase A for hRI
Source text: as §1
Data points are the mean (±SE) of at least three separate measurements.

[4] = molecular target: T1, human ribonuclease inhibitor; experiment: constant used in the fluorescence competition assay
Source text: as §1

| Binder | ΔΔG [1] [kcal/mol] | ΔΔΔG [2] [kcal/mol] | Kd [3] [nM] | Kd [4] [nM] |
| --- | --- | --- | --- | --- |
| B1 | 3 |  |  |  |
| B2 | 7.6 | 1.9 |  |  |
| B3 | 6.7 | 2.8 |  |  |
| B4 | 9.1 | 0.4 | 1000 |  |
| B5 | 9.5 |  |  |  |
| B6 | 8.4 | 1.1 |  |  |
| B7 | 7.1 | 2.4 | 30 |  |
| B8 | 7.3 | 2.2 |  |  |
| B9 |  |  |  | 1.4 |
